Source: the supplement of paper PMC5998384

What was measured:
HeLa Kyoto [1] = experiment: solubility in G1/S (NP-40 vs SDS abundance) (log2 ratio); higher = more soluble; settings: cell cycle stage: G1/S
HeLa Kyoto [2] = experiment: melting temperature (median over replicates), in situ; higher = more thermally stable
HeLa Kyoto [3] = experiment: solubility change mitosis vs G1/S (difference of NP-40 vs SDS log2 ratios) (log2 ratio difference); higher = more soluble in mitosis
HeLa Kyoto [4] = experiment: thermal stability score vs G1/S (z-score of summed log2 fold changes over temperatures); higher = more thermally stable than in G1/S
[5] = cell cycle stage: early G1 (4.5 h after nocodazole release)
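Wherever melting temperature (median over replicates), in situ is given: HeLa Kyoto cells synchronized by double thymidine or nocodazole block, proteins quantified by TMT10plex mass spectrometry, three independent biological replicates.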
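Wherever solubility change mitosis vs G1/S (difference of NP-40 vs SDS log2 ratios) is given: synchronized HeLa Kyoto cells (double thymidine block for G1/S, nocodazole release for mitosis), protein amounts in NP-40 versus SDS lysates quantified by mass spectrometry, three biological replicates.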
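Wherever solubility in G1/S (NP-40 vs SDS abundance) is given: HeLa Kyoto cells arrested at G1/S by double thymidine block, proteins quantified by TMT10plex mass spectrometry in mild NP-40 versus SDS extracts, three biological replicates.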
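Wherever thermal stability score vs G1/S (z-score of summed log2 fold changes over temperatures) is given: synchronized HeLa Kyoto cells, proteins quantified by TMT10plex mass spectrometry, three biological replicates, mitosis taken 0.5 h after nocodazole release, G1/S directly after double thymidine block.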

Substance	solubility in G1/S (log2) (HeLa Kyoto [1])	melting temperature (HeLa Kyoto [2]; cell cycle stage: G1/S) [°C]	melting temperature (HeLa Kyoto [2]; cell cycle stage: mitosis) [°C]	solubility change mitosis (log2) (HeLa Kyoto [3])	thermal stability score (HeLa Kyoto [4]; [5])	thermal stability score (HeLa Kyoto [4]; cell cycle stage: mitosis)
MWALRAAVRPGLRLSRVGRGRSAPRAAAPSCPARALAAVGRRSPGNLEGPWGGGRGLRADGGRSRTGDDEEEPEDADENAEEELLRGEPLLPAGTQRVCLVHPDVKWGPGKSQMTRAEWQVAEATALVHTLDGWSVVQTMVVSTKTPDRKLIFGKGNFEHLTEKIRGSPDITCVFLNVERMAAPTKKELEAAWGVEVFDRFTVVLHIFRCNARTKEARLQVALAEMPLHRSNLKRDVAHLYRGVGSRYIMGSGESFMQLQQRLLREKEAKIRKALDRLRKKRHLLRRQRTRREFPVISVVGYTNCGKTTLIKALTGDAAIQPRDQLFATLDVTAHAGTLPSRMTVLYVDTIGFLSQLPHGLIESFSATLEDVAHSDLILHVRDVSHPEAELQKCSVLSTLRGLQLPAPLLDSMVEVHNKVDLVPGYSPTEPNVVPVSALRGHGLQELKAELDAAVLKATGRQILTLRVRLAGAQLSWLYKEATVQEVDVIPEDGAADVRVIISNSAYGKFRKLFPG [GTPBP6]	-0.232	51.8	51.4	0.00881	-0.762	-0.462
MGFLKLIEIENFKSYKGRQIIGPFQRFTAIIGPNGSGKSNLMDAISFVLGEKTSNLRVKTLRDLIHGAPVGKPAANRAFVSMVYSEEGAEDRTFARVIVGGSSEYKINNKVVQLHEYSEELEKLGILIKARNFLVFQGAVESIAMKNPKERTALFEEISRSGELAQEYDKRKKEMVKAEEDTQFNYHRKKNIAAERKEAKQEKEEADRYQRLKDEVVRAQVQLQLFKLYHNEVEIEKLNKELASKNKEIEKDKKRMDKVEDELKEKKKELGKMMREQQQIEKEIKEKDSELNQKRPQYIKAKENTSHKIKKLEAAKKSLQNAQKHYKKRKGDMDELEKEMLSVEKARQEFEERMEEESQSQGRDLTLEENQVKKYHRLKEEASKRAATLAQELEKFNRDQKADQDRLDLEERKKVETEAKIKQKLREIEENQKRIEKLEEYITTSKQSLEEQKKLEGELTEEVEMAKRRIDEINKELNQVMEQLGDARIDRQESSRQQRKAEIMESIKRLYPGSVYGRLIDLCQPTQKKYQIAVTKVLGKNMDAIIVDSEKTGRDCIQYIKEQRGEPETFLPLDYLEVKPTDEKLRELKGAKLVIDVIRYEPPHIKKALQYACGNALVCDNVEDARRIAFGGHQRHKTVALDGTLFQKSGVISGGASDLKAKARRWDEKAVDKLKEKKERLTEELKEQMKAKRKEAELRQVQSQAHGLQMRLKYSQSDLEQTKTRHLALNLQEKSKLESELANFGPRINDIKRIIQSREREMKDLKEKMNQVEDEVFEEFCREIGVRNIREFEEEKVKRQNEIAKKRLEFENQKTRLGIQLDFEKNQLKEDQDKVHMWEQTVKKDENEIEKLKKEEQRHMKIIDETMAQLQDLKNQHLAKKSEVNDKNHEMEEIRKKLGGANKEMTHLQKEVTAIETKLEQKRSDRHNLLQACKMQDIKLPLSKGTMDDISQEEGSSQGEDSVSGSQRISSIYAREALIEIDYGDLCEDLKDAQAEEEIKQEMNTLQQKLNEQQSVLQRIAAPNMKAMEKLESVRDKFQETSDEFEAARKRAKKAKQAFEQIKKERFDRFNACFESVATNIDEIYKALSRNSSAQAFLGPENPEEPYLDGINYNCVAPGKRFRPMDNLSGGEKTVAALALLFAIHSYKPAPFFVLDEIDAALDNTNIGKVANYIKEQSTCNFQAIVISLKEEFYTKAESLIGVYPEQGDCVISKVLTFDLTKYPDANPNPNEQ [SMC1A]	-0.302	51.9	51.3	0.0456	-0.868	-1.79
MLFNSVLRQPQLGVLRNGWSSQYPLQSLLTGYQCSGNDEHTSYGETGVPVPPFGCTFSSAPNMEHVLAVANEEGFVRLYNTESQSFRKKCFKEWMAHWNAVFDLAWVPGELKLVTAAGDQTAKFWDVKAGELIGTCKGHQCSLKSVAFSKFEKAVFCTGGRDGNIMVWDTRCNKKDGFYRQVNQISGAHNTSDKQTPSKPKKKQNSKGLAPSVDFQQSVTVVLFQDENTLVSAGAVDGIIKVWDLRKNYTAYRQEPIASKSFLYPGSSTRKLGYSSLILDSTGSTLFANCTDDNIYMFNMTGLKTSPVAIFNGHQNSTFYVKSSLSPDDQFLVSGSSDEAAYIWKVSTPWQPPTVLLGHSQEVTSVCWCPSDFTKIATCSDDNTLKIWRLNRGLEEKPGGDKLSTVGWASQKKKESRPGLVTVTSSQSTPAKAPRAKCNPSNSSPSSAACAPSCAGDLPLPSNTPTFSIKTSPAKARSPINRRGSVSSVSPKPPSSFKMSIRNWVTRTPSSSPPITPPASETKIMSPRKALIPVSQKSSQAEACSESRNRVKRRLDSSCLESVKQKCVKSCNCVTELDGQVENLHLDLCCLAGNQEDLSKDSLGPTKSSKIEGAGTSISEPPSPISPYASESCGTLPLPLRPCGEGSEMVGKENSSPENKNWLLAMAAKRKAENPSPRSPSSQTPNSRRQSGKKLPSPVTITPSSMRKICTYFHRKSQEDFCGPEHSTEL [DTL]	-0.00542	50.4	50.1	-0.0846	-1.36	-1.25
MTAELQQDDAAGAADGHGSSCQMLLNQLREITGIQDPSFLHEALKASNGDITQAVSLLTDERVKEPSQDTVATEPSEVEGSAANKEVLAKVIDLTHDNKDDLQAAIALSLLESPKIQADGRDLNRMHEATSAETKRSKRKRCEVWGENPNPNDWRRVDGWPVGLKNVGNTCWFSAVIQSLFQLPEFRRLVLSYSLPQNVLENCRSHTEKRNIMFMQELQYLFALMMGSNRKFVDPSAALDLLKGAFRSSEEQQQDVSEFTHKLLDWLEDAFQLAVNVNSPRNKSENPMVQLFYGTFLTEGVREGKPFCNNETFGQYPLQVNGYRNLDECLEGAMVEGDVELLPSDHSVKYGQERWFTKLPPVLTFELSRFEFNQSLGQPEKIHNKLEFPQIIYMDRYMYRSKELIRNKRECIRKLKEEIKILQQKLERYVKYGSGPARFPLPDMLKYVIEFASTKPASESCPPESDTHMTLPLSSVHCSVSDQTSKESTSTESSSQDVESTFSSPEDSLPKSKPLTSSRSSMEMPSQPAPRTVTDEEINFVKTCLQRWRSEIEQDIQDLKTCIASTTQTIEQMYCDPLLRQVPYRLHAVLVHEGQANAGHYWAYIYNQPRQSWLKYNDISVTESSWEEVERDSYGGLRNVSAYCLMYINDKLPYFNAEAAPTESDQMSEVEALSVELKHYIQEDNWRFEQEVEEWEEEQSCKIPQMESSTNSSSQDYSTSQEPSVASSHGVRCLSSEHAVIVKEQTAQAIANTARAYEKSGVEAALSEVMLSPAMQGVILAIAKARQTFDRDGSEAGLIKAFHEEYSRLYQLAKETPTSHSDPRLQHVLVYFFQNEAPKRVVERTLLEQFADKNLSYDERSISIMKVAQAKLKEIGPDDMNMEEYKKWHEDYSLFRKVSVYLLTGLELYQKGKYQEALSYLVYAYQSNAALLMKGPRRGVKESVIALYRRKCLLELNAKAASLFETNDDHSVTEGINVMNELIIPCIHLIINNDISKDDLDAIEVMRNHWCSYLGQDIAENLQLCLGEFLPRLLDPSAEIIVLKEPPTIRPNSPYDLCSRFAAVMESIQGVSTVTVK [USP28]	0.0518	48	49.4	-0.0214	0.432	0.537
MDGDGDPESVGQPEEASPEEQPEEASAEEERPEDQQEEEAAAAAAYLDELPEPLLLRVLAALPAAELVQACRLVCLRWKELVDGAPLWLLKCQQEGLVPEGGVEEERDHWQQFYFLSKRRRNLLRNPCGEEDLEGWCDVEHGGDGWRVEELPGDSGVEFTHDESVKKYFASSFEWCRKAQVIDLQAEGYWEELLDTTQPAIVVKDWYSGRSDAGCLYELTVKLLSEHENVLAEFSSGQVAVPQDSDGGGWMEISHTFTDYGPGVRFVRFEHGGQDSVYWKGWFGARVTNSSVWVEP [FBXO2]	-0.047	51.9	50.8	-0.206	0.487	-0.484
MYO10	-0.269	48.3	49.4	-0.176	0.691	0.867
MEAPAAGLFLLLLLGTWAPAPGSASSEAPPLINEDVKRTVDLSSHLAKVTAEVVLAHLGGGSTSRATSFLLALEPELEARLAHLGVQVKGEDEEENNLEVRETKIKGKSGRFFTVKLPVALDPGAKISVIVETVYTHVLHPYPTQITQSEKQFVVFEGNHYFYSPYPTKTQTMRVKLASRNVESYTKLGNPTRSEDLLDYGPFRDVPAYSQDTFKVHYENNSPFLTITSMTRVIEVSHWGNIAVEENVDLKHTGAVLKGPFSRYDYQRQPDSGISSIRSFKTILPAAAQDVYYRDEIGNVSTSHLLILDDSVEMEIRPRFPLFGGWKTHYIVGYNLPSYEYLYNLGDQYALKMRFVDHVFDEQVIDSLTVKIILPEGAKNIEIDSPYEISRAPDELHYTYLDTFGRPVIVAYKKNLVEQHIQDIVVHYTFNKVLMLQEPLLVVAAFYILFFTVIIYVRLDFSITKDPAAEARMKVACITEQVLTLVNKRIGLYRHFDETVNRYKQSRDISTLNSGKKSLETEHKALTSEIALLQSRLKTEGSDLCDRVSEMQKLDAQVKELVLKSAVEAERLVAGKLKKDTYIENEKLISGKRQELVTKIDHILDAL [RPN1]	0.0559	53.2	53.6	-0.0592	1.85	2.85
